In paper PMC6291300:
Where two headings read alike, the source gives them in different places.

How the values were obtained:
[1] = molecular target: Rozanolixizumab (1519.g57 IgG4P); experiment: SPR
[2] = molecular target: Rozanolixizumab (1519.g57 IgG4P); experiment: SPR; remark: listed apart in the source
[3] = molecular target: Human FcRn (α-chain and β2m) on stably transfected MDCK cells (human) (UniProt P55899); experiment: flow cytometry on cells
[4] = molecular target: Cynomolgus monkey FcRn (α-chain and β2m) on stably transfected MDCK cells (cynomolgus monkey) (UniProt Q8SPV9); experiment: flow cytometry on cells
UniProt Q8SPV9, sequence (Q8SPV9 24-365, chain 1 of 2): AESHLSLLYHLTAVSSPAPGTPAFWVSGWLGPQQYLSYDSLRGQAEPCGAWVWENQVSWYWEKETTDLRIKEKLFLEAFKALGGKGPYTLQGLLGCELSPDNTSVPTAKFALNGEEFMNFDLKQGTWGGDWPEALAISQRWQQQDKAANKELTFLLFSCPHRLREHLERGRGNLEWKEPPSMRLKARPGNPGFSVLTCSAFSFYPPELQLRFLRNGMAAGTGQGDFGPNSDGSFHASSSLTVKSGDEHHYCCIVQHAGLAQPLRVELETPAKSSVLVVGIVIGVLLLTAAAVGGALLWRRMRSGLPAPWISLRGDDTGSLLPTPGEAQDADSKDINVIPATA
UniProt Q8SPV9, sequence (Q8SPW0 21-119, chain 2 of 2, further chain): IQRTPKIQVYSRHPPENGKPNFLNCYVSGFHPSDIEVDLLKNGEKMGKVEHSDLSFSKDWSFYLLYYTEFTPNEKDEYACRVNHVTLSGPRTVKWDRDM

[5] = molecular target: Human FcRn (α-chain and β2m) on stably transfected MDCK cells (human) (UniProt P55899); experiment: flow cytometry on cells; remark: listed apart in the source
[6] = molecular target: Rozanolixizumab (1519.g57 IgG4P); experiment: SPR; remark: listed apart in the source

In the case of “Human FcRn extracellular domain (α-chain with β2-microglobulin) (from UniProt P55899 24-297; P61769 21-119) (complex)”, the Kd [1] is reported as 0.034 nM and the Kd [2] is reported as under 0.023 nM.

“Rozanolixizumab (1519.g57 IgG4P) (antibody)” showed a Kd [3] of 0.37 nM, a Kd [4] of 1 nM and a Kd [5] of 0.43 nM.

For 1519.g57 Fab’, the Kd [3] was 0.44 nM and the Kd [5] was 0.42 nM.

B1: Rat FcRn extracellular domain (α-chain with β2-microglobulin) (complex)
chain 1: AEPRLPLMYHLAAVSDLSTGLPSFWATGWLGAQQYLTYNNLRQEADPCGAWIWENQVSWYWEKETTDLKSKEQLFLEAIRTLENQINGTFTLQGLLGCELAPDNSSLPTAVFALNGEEFMRFNPRTGNWSGEWPETDIVGNLWMKQPEAARKESEFLLTSCPERLLGHLERGRQNLEWKEPPSMRLKARPGNSGSSVLTCAAFSFYPPELKFRFLRNGLASGSGNCSTGPNGDGSFHAWSLLEVKRGDEHHYQCQVEHEGLAQPLTVDLDSPARSS
chain 2: IQKTPQIQVYSRHPPENGKPNFLNCYVSQFHPPQIEIELLKNGKKIPNIEMSDLSFSKDWSFYILAHTEFTPTETDVYACRVKHVTLKEPKTVTWDRDM
B1 gave a Kd [6] of 99 nM.
